According to the supplement of paper PMC9170038:

Test system: K4 kissing-loop RNA reporter
Assay: apparent KD of K4 kissing-loop reporter; higher = weaker reporter binding
Conditions: Eterna round: R107
Experimental: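 RNA-MaP round R107: designed RNA switches with theophylline, tryptophan, arginine or FMN aptamers are transcribed on-chip within common flanks. They are titrated with a labelled K4 kissing-loop RNA reporter in RNA-MaP buffer (100 mM Tris pH 7.5, 80 mM KCl, 4 mM MgCl2), without ligand or with the indicated ligand. Median apparent KD per design.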

[1] = input ligand: theophylline 20 uM
[2] = input ligand: tryptophan 2.4 mM
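Note: bound reporter read as fluorescence of individual clusters on recovered sequencing chips by microscopy, with normalized cluster intensities fitted with a binding model.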

With “GCUAUGGUAGGAAGGAGCGCUACUUUAUUUUUACGAGUGAUGUUCGGUAGUAGAGUGUUAAAGCAGGUAGGUCGCCUACUAUAGC [Arginine B K4 18]” the “apparent KD of K4 kissing-loop reporter” value (input ligand: FMN 200 uM) was 217 nM, the “apparent KD of K4 kissing-loop reporter” value (input ligand: arginine 13.2 mM) was 132 nM and the “apparent KD of K4 kissing-loop reporter” value (input ligand: none) was 140 nM. The “apparent KD of K4 kissing-loop reporter” value [1] was 172 nM and the “apparent KD of K4 kissing-loop reporter” value [2] was 146 nM.
In the case of “UGGAGGAAUCGACCUCGAAAGAGGAUGGAUACCAGAGAAGAAAUUCUCCCUUGGCAGCCAGUGAUGUUGGAACCUCCUAAAUAAA [#SwitchBubble 18 #K4Late]”, the “apparent KD of K4 kissing-loop reporter” value (input ligand: FMN 200 uM) is reported as 609 nM, the “apparent KD of K4 kissing-loop reporter” value (input ligand: arginine 13.2 mM) is reported as 445 nM and the “apparent KD of K4 kissing-loop reporter” value (input ligand: none) is reported as 706 nM. For the same sequence, the “apparent KD of K4 kissing-loop reporter” value [1] was 354 nM and the “apparent KD of K4 kissing-loop reporter” value [2] was 622 nM.
In the case of “CGUACAUCUUUUCGCGGAGUGAUGUUCUCGCGAGGACCGGUACGGCCGCCACUCGAAUUGUUAUCUGGCGAAAAUUGUCUAUAAA [theeternabot_exclusion_KL_Trp_A_33]”, the “apparent KD of K4 kissing-loop reporter” value (input ligand: FMN 200 uM) is reported as 393 nM, the “apparent KD of K4 kissing-loop reporter” value (input ligand: arginine 13.2 mM) is reported as 273 nM and the “apparent KD of K4 kissing-loop reporter” value (input ligand: none) is reported as 352 nM. The “apparent KD of K4 kissing-loop reporter” value [1] was 318 nM and the “apparent KD of K4 kissing-loop reporter” value [2] was 410 nM.
With “AAAGUUGAAAGUGAUACCAGACGAGUGAAGGGAAGAAAUUAAUUUGGAGUGAUGUUCCGCGUCCCUUGGCAGCACUUUGUAAUUU [Exclusion Theophylline B GF 23]” the “apparent KD of K4 kissing-loop reporter” value (input ligand: FMN 200 uM) was 123 nM, the “apparent KD of K4 kissing-loop reporter” value (input ligand: arginine 13.2 mM) was 150 nM and the “apparent KD of K4 kissing-loop reporter” value (input ligand: none) was 142 nM. For the same sequence, the “apparent KD of K4 kissing-loop reporter” value [1] was 174 nM and the “apparent KD of K4 kissing-loop reporter” value [2] was 107 nM.
With “CCAUCGCUAUUCGAUACCAGCUACUUAGUGAUGUUAAGUUAAAAUCCACUGUAGGUGGAAAGCCCUUGGCAGCGAAUAGUGAUGG [Theophylline B K4 23]” the “apparent KD of K4 kissing-loop reporter” value (input ligand: FMN 200 uM) was 235 nM, the “apparent KD of K4 kissing-loop reporter” value (input ligand: arginine 13.2 mM) was 189 nM and the “apparent KD of K4 kissing-loop reporter” value (input ligand: none) was 205 nM. For the same sequence, the “apparent KD of K4 kissing-loop reporter” value [1] was 117 nM and the “apparent KD of K4 kissing-loop reporter” value [2] was 203 nM.
For “GGUUGCAGCCCUGCAUCGUGGGUUUAGAGUAAGGAUAUUCGCCAAGGAAGAAGGUACUCUGCAUUGAGUGAUGUUCAAUAAGAUG [theeternabot_sameState_KL_FMN_A_30]”, the “apparent KD of K4 kissing-loop reporter” value (input ligand: FMN 200 uM) was 109 nM, the “apparent KD of K4 kissing-loop reporter” value (input ligand: arginine 13.2 mM) was 176 nM and the “apparent KD of K4 kissing-loop reporter” value (input ligand: none) was 146 nM. The “apparent KD of K4 kissing-loop reporter” value [1] was 166 nM and the “apparent KD of K4 kissing-loop reporter” value [2] was 104 nM.
“GUGUCCUAGUCGGCCGCCACUGGUACGAAAAUAGAAGGACGUGUGCACAUGAGUGAUGUUCAUGUCAGGACCGGGACUAGGGUGU [KL-SSTryp-B6 Brourdwalk2]” was tested, and the “apparent KD of K4 kissing-loop reporter” value (input ligand: FMN 200 uM) was 281 nM, the “apparent KD of K4 kissing-loop reporter” value (input ligand: arginine 13.2 mM) was 304 nM and the “apparent KD of K4 kissing-loop reporter” value (input ligand: none) was 367 nM. For the same sequence, the “apparent KD of K4 kissing-loop reporter” value [1] was 332 nM and the “apparent KD of K4 kissing-loop reporter” value [2] was 316 nM.
With “AGACCACAAAGUGGUCAGUGUUCGCAGCAGCGAGGACCGGUACGGCCGCCACUCGCGAGUGAUGUUCGCGAGAGCUGCGAACACA [Omei KL Tryp A Exc A v7]” the “apparent KD of K4 kissing-loop reporter” value (input ligand: FMN 200 uM) was 101 nM, the “apparent KD of K4 kissing-loop reporter” value (input ligand: arginine 13.2 mM) was 83.2 nM and the “apparent KD of K4 kissing-loop reporter” value (input ligand: none) was 81.3 nM. The “apparent KD of K4 kissing-loop reporter” value [1] was 83.3 nM and the “apparent KD of K4 kissing-loop reporter” value [2] was 109 nM.
“AGUGAUGUUUUUUUUAAGAGUGAUGUUUUUCGAGGACCGGUACGGCCGCCACUCGAGUGAGGAGUGCGGUGGUGAGAUGUUGAGU [oomullin]” was tested, and the “apparent KD of K4 kissing-loop reporter” value (input ligand: FMN 200 uM) was 549 nM, the “apparent KD of K4 kissing-loop reporter” value (input ligand: arginine 13.2 mM) was 466 nM and the “apparent KD of K4 kissing-loop reporter” value (input ligand: none) was 677 nM. The “apparent KD of K4 kissing-loop reporter” value [1] was 589 nM and the “apparent KD of K4 kissing-loop reporter” value [2] was 519 nM.
“AUGUCUGAUAGCAGUGAUGUUGCUUCGGAUACCAGACGAGAUCAUGUCCCUUGGCAGCUGACACGGCACGUGCUAGGUUAGAUGG [whbob_Ex_Theo_A_th73]” was tested, and the “apparent KD of K4 kissing-loop reporter” value (input ligand: FMN 200 uM) was 121 nM, the “apparent KD of K4 kissing-loop reporter” value (input ligand: arginine 13.2 mM) was 115 nM and the “apparent KD of K4 kissing-loop reporter” value (input ligand: none) was 111 nM. For the same sequence, the “apparent KD of K4 kissing-loop reporter” value [1] was 94.7 nM and the “apparent KD of K4 kissing-loop reporter” value [2] was 115 nM.
In the case of “AACACUCAACGGAGUGAUGUUCUGGAAAACCGAGGACCGGUACGGCCGCCACUCGGAAAUGAGUGAGUCCUACGAAAAGUAGGAC [Omei inspired 2]”, the “apparent KD of K4 kissing-loop reporter” value (input ligand: FMN 200 uM) is reported as 160 nM, the “apparent KD of K4 kissing-loop reporter” value (input ligand: arginine 13.2 mM) is reported as 161 nM and the “apparent KD of K4 kissing-loop reporter” value (input ligand: none) is reported as 150 nM. For the same sequence, the “apparent KD of K4 kissing-loop reporter” value [1] was 157 nM and the “apparent KD of K4 kissing-loop reporter” value [2] was 125 nM.
With “AAGAGCUAGGCGGCCGCCACUAGAUGUGAACACAUACAAGCCAGUGAUGUUGGUAUGAUGGACAGUAGGACCGGGCCUAGCUGAA [Exclusion - Tryptophan B (Freestyle 9)]” the “apparent KD of K4 kissing-loop reporter” value (input ligand: FMN 200 uM) was 353 nM, the “apparent KD of K4 kissing-loop reporter” value (input ligand: arginine 13.2 mM) was 377 nM and the “apparent KD of K4 kissing-loop reporter” value (input ligand: none) was 407 nM. The “apparent KD of K4 kissing-loop reporter” value [1] was 368 nM and the “apparent KD of K4 kissing-loop reporter” value [2] was 421 nM.
With “UCGGACCCUGGAGGAUAUGAGUCUAGUGAUGUUAGGCGGUCCAUGCCGGUGCGGCGUUAUGCCCUUUUAGAAGGCCAGGGUCCGA [#2 Exclusion - FMN B Attempt #14 (HarryS)]” the “apparent KD of K4 kissing-loop reporter” value (input ligand: FMN 200 uM) was 143 nM, the “apparent KD of K4 kissing-loop reporter” value (input ligand: arginine 13.2 mM) was 78.8 nM and the “apparent KD of K4 kissing-loop reporter” value (input ligand: none) was 107 nM. The “apparent KD of K4 kissing-loop reporter” value [1] was 102 nM and the “apparent KD of K4 kissing-loop reporter” value [2] was 112 nM.
For “GCCGUACGCAUGGAUACCAGAUGGCACUAUAAUCUCCCAGAGUGAUGUUCUGGCCUGCCUAUCCCUUGGCAGCCAUGCGUACGGC”, the “apparent KD of K4 kissing-loop reporter” value (input ligand: FMN 200 uM) was 686 nM, the “apparent KD of K4 kissing-loop reporter” value (input ligand: arginine 13.2 mM) was 514 nM and the “apparent KD of K4 kissing-loop reporter” value (input ligand: none) was 670 nM. For the same sequence, the “apparent KD of K4 kissing-loop reporter” value [1] was 387 nM and the “apparent KD of K4 kissing-loop reporter” value [2] was 585 nM.
For “AAACAUUGGUCUGAUACCAGCUUGAUCGGAAAACGAUCUGCUGGAGUGAUGUUCCAAUAAAGCCCUUGGCAGCAGACCGAUGAAA [MAT - Same State Theophlline B - Mod of Eli - D13]”, the “apparent KD of K4 kissing-loop reporter” value (input ligand: FMN 200 uM) was 823 nM, the “apparent KD of K4 kissing-loop reporter” value (input ligand: arginine 13.2 mM) was 444 nM and the “apparent KD of K4 kissing-loop reporter” value (input ligand: none) was 818 nM. The “apparent KD of K4 kissing-loop reporter” value [1] was 684 nM and the “apparent KD of K4 kissing-loop reporter” value [2] was 722 nM.
In the case of “UCCAUGCGCGCACGGUACUUGCCCGCAUAUCGAGGACCGGUACGGCCGCCACUCGUGCCAGUGAUGUUGGCCGGAGAGCCUUAUG [theeternabot_sameState_KL_Trp_A_22]”, the “apparent KD of K4 kissing-loop reporter” value (input ligand: FMN 200 uM) is reported as 476 nM, the “apparent KD of K4 kissing-loop reporter” value (input ligand: arginine 13.2 mM) is reported as 349 nM and the “apparent KD of K4 kissing-loop reporter” value (input ligand: none) is reported as 475 nM. For the same sequence, the “apparent KD of K4 kissing-loop reporter” value [1] was 449 nM and the “apparent KD of K4 kissing-loop reporter” value [2] was 524 nM.
For “AGUGAUGUGGGAAGGAGCGCUACAAGACUUCAGUGAUGUUGAAGUGAUGUUUUAGUGUUGUAGCAGGUAGGUCGCCUAGAUGUUA [KL-XARG-B10]”, the “apparent KD of K4 kissing-loop reporter” value (input ligand: FMN 200 uM) was 71.2 nM, the “apparent KD of K4 kissing-loop reporter” value (input ligand: arginine 13.2 mM) was 31.9 nM and the “apparent KD of K4 kissing-loop reporter” value (input ligand: none) was 42.5 nM. For the same sequence, the “apparent KD of K4 kissing-loop reporter” value [1] was 45.7 nM and the “apparent KD of K4 kissing-loop reporter” value [2] was 43.7 nM.
In the case of “GCAGUGAUGUUGCUCGUUUCAUCGCGAGAUACCAGACCAUAUGAGGUCCCUUGGCAGCUCUAGUCAUCUGGUCCUUUUGCGUACU [theeternabot_exclusion_KL_Theo_A_2]”, the “apparent KD of K4 kissing-loop reporter” value (input ligand: FMN 200 uM) is reported as 906 nM, the “apparent KD of K4 kissing-loop reporter” value (input ligand: arginine 13.2 mM) is reported as 620 nM and the “apparent KD of K4 kissing-loop reporter” value (input ligand: none) is reported as 941 nM. For the same sequence, the “apparent KD of K4 kissing-loop reporter” value [1] was 722 nM and the “apparent KD of K4 kissing-loop reporter” value [2] was 653 nM.
For “AUAAAUAAUAAUGACUGAGAGUUUGGUGAGCGAGGACCGGUACGGCCGCCACUCGUACAUGAGUGAUGUUCUUGUAUGAGUCAGA [KL-XTryp-A6 #analogue]”, the “apparent KD of K4 kissing-loop reporter” value (input ligand: FMN 200 uM) was 127 nM, the “apparent KD of K4 kissing-loop reporter” value (input ligand: arginine 13.2 mM) was 97.6 nM and the “apparent KD of K4 kissing-loop reporter” value (input ligand: none) was 95.6 nM. For the same sequence, the “apparent KD of K4 kissing-loop reporter” value [1] was 97.6 nM and the “apparent KD of K4 kissing-loop reporter” value [2] was 105 nM.
“CUUGGUCCACGAAGGAGCGCCGUGCAGUGAUGUUGCAGUCAGAUCGAGUGAUGUUUCGGGCGGCAGGUAGGUCGCGUGGCCCUUU [Excusion Arginine B GF 25]” was tested, and the “apparent KD of K4 kissing-loop reporter” value (input ligand: FMN 200 uM) was 655 nM, the “apparent KD of K4 kissing-loop reporter” value (input ligand: arginine 13.2 mM) was 362 nM and the “apparent KD of K4 kissing-loop reporter” value (input ligand: none) was 768 nM. For the same sequence, the “apparent KD of K4 kissing-loop reporter” value [1] was 640 nM and the “apparent KD of K4 kissing-loop reporter” value [2] was 464 nM.
For “UGUCAUUGGUCGGCCGCCACUUCAAAGAGAGUGAUGUUCUUAAAGACGGAUCGAAAGAUCUGUCGAAGGACCGGGACCGAUGACU [TrypBS 17 #SwitchBubble #StaticStem]”, the “apparent KD of K4 kissing-loop reporter” value (input ligand: FMN 200 uM) was 1770 nM, the “apparent KD of K4 kissing-loop reporter” value (input ligand: arginine 13.2 mM) was 973 nM and the “apparent KD of K4 kissing-loop reporter” value (input ligand: none) was 1110 nM. For the same sequence, the “apparent KD of K4 kissing-loop reporter” value [1] was 1200 nM and the “apparent KD of K4 kissing-loop reporter” value [2] was 285 nM.
